The source of these data is patent publication US20040205843A1 (NORTH CAROLINA STATE UNIVERSITY, published 2004).

The chains are these.
B1: GST-AL1 119-180 (other)
chain: VDGRSARGGCQTSNDAAAEALNASSKEEALQIIREKIPEKYLFQFHNLNSNLDRIFDKTPEP

Test in all cases: GST co-purification from insect cells, immunoblot
On the technique in general: A western blot detects proteins with antibodies after separation by electrophoresis.

One assay concerns the target T1, AL1 119-352 (tomato golden mosaic virus (TGMV), UniProt P03567 119-352).
T1 sequence: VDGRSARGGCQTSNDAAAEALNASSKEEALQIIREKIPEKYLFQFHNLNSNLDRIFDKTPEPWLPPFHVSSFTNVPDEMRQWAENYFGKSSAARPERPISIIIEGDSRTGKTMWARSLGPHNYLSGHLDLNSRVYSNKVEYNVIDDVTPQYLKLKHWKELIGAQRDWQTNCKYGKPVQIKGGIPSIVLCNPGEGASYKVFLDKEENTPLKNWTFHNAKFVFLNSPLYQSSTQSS

The next assay concerns the target T2, AL1 160-352 (tomato golden mosaic virus (TGMV), UniProt P03567 160-352).
T2 sequence: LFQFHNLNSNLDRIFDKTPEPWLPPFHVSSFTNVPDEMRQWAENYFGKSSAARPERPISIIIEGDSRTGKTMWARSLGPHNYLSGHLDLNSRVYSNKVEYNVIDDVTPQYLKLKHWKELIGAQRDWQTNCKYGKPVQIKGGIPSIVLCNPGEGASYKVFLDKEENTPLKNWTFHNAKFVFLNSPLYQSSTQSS

For another assay, the target named is T3, AL1 134-352 (tomato golden mosaic virus (TGMV), UniProt P03567 134-352).
T3 sequence: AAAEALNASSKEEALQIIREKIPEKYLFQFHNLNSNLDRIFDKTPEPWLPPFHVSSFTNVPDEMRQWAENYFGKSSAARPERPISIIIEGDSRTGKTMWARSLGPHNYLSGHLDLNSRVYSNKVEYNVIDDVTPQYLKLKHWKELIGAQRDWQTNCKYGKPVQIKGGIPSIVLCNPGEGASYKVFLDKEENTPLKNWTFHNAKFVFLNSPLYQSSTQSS

Assay [1] concerns the target T4, TGMV AL1, wild type, full length, untagged (tomato golden mosaic virus (TGMV), UniProt P03567 1-352).
T4 construct: also called Rep; authentic AL1
T4 sequence: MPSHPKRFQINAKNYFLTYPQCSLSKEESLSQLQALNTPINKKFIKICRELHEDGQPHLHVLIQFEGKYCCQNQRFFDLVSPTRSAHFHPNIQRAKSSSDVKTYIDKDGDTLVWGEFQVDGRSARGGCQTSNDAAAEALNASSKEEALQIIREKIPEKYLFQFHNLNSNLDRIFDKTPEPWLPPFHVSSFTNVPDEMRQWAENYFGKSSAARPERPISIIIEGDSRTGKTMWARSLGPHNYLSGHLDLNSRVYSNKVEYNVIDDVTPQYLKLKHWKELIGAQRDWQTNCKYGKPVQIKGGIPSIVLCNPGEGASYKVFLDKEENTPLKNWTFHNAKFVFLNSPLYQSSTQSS

Another assay addresses T5, AL1 147-352 (tomato golden mosaic virus (TGMV), UniProt P03567 147-352).
T5 sequence: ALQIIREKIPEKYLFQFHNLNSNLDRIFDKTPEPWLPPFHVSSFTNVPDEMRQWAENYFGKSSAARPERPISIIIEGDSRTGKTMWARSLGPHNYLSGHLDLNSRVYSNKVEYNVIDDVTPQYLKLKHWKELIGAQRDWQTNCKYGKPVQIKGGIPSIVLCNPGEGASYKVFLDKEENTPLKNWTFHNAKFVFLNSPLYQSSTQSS

For another assay, the target named is T6, GST-AL1(119-352) (tomato golden mosaic virus (TGMV), UniProt P03567 119-352).
T6 construct: also called N-terminal truncation of AL1 fused to GST
T6 sequence: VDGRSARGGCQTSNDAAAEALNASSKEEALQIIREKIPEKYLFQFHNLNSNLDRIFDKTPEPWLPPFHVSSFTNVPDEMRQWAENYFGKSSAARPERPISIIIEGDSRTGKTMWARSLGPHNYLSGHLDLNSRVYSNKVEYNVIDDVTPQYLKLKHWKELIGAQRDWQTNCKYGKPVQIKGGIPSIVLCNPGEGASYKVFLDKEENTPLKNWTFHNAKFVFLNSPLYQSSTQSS

The next assay deals with T7, GST-AL1(1-180) (tomato golden mosaic virus (TGMV), UniProt P03567 1-180).
T7 construct: also called C-terminal truncation of AL1 fused to GST
T7 sequence: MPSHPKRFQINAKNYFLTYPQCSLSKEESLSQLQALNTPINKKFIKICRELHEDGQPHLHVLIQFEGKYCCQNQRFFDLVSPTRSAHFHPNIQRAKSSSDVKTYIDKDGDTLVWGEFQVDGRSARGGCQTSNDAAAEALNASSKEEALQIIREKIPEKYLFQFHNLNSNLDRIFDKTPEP

Assay [2] addresses T8, Full length GST-AL1 1-352 (tomato golden mosaic virus (TGMV), UniProt P03567 1-352).
T8 sequence: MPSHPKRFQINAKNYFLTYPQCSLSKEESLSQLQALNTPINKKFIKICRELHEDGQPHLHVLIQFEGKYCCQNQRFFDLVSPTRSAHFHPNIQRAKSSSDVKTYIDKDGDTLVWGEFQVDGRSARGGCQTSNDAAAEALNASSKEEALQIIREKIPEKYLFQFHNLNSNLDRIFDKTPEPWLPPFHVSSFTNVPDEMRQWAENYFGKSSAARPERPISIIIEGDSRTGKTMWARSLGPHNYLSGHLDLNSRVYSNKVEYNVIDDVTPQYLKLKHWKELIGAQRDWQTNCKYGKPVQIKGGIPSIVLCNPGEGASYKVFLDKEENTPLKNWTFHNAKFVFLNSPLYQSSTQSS

The assay “GST-AL1 119-180” has as its target B1.

In the case of B1, the binding result in the assay with AL1 119-352 is “binds”; with AL1 160-352 it was “no binding”; with AL1 134-352 it was “binds”; in assay [1] it was “binds”; in the assay with AL1 147-352 it was “no binding”.

B2: AL1 EKY159 (Ala7), full length, untagged (other)
chain: MPSHPKRFQINAKNYFLTYPQCSLSKEESLSQLQALNTPINKKFIKICRELHEDGQPHLHVLIQFEGKYCCQNQRFFDLVSPTRSAHFHPNIQRAKSSSDVKTYIDKDGDTLVWGEFQVDGRSARGGCQTSNDAAAEALNASSKEEALQIIREKIPAAALFQFHNLNSNLDRIFDKTPEPWLPPFHVSSFTNVPDEMRQWAENYFGKSSAARPERPISIIIEGDSRTGKTMWARSLGPHNYLSGHLDLNSRVYSNKVEYNVIDDVTPQYLKLKHWKELIGAQRDWQTNCKYGKPVQIKGGIPSIVLCNPGEGASYKVFLDKEENTPLKNWTFHNAKFVFLNSPLYQSSTQSS
In the case of B2, the binding result is “binds” with GST-AL1(119-352), “no binding” with GST-AL1(1-180), “binds” in assay [2] and “no binding” in the assay with GST-AL1 119-180.
